B1: mRNA-splicing (parent)
chain: AGUUGCUGCUGGGAGCUCCAGCACAGUGAAAUGGACAGAAGGGCAGAGCAA

Variants of B1 are the subject of the data set. As to the kind of experiment: exon inclusion enrichment index; higher = more inclusion; WT1 exon 5 minigene, HEK293.
For C6A U7A C9A U10A A47G G48A, the “exon inclusion enrichment index” value stood at 0.364.
The same measure for G5A C6G U7G G8C C9G: 0.0513; for G5A C6G U7G C9A A35U C36U: 0.000752; for G5U G8U C9U A20G G21U: 0.195.
For G5C C6G U7C U10C C19A A20U, the “exon inclusion enrichment index” value was determined as 1.52.
In the case of U10A it was 0.633.
G5C C6A U7C G8A U10A A31C U32A: the “exon inclusion enrichment index” value was determined as 0.0301.
For U32G G33A, the “exon inclusion enrichment index” value was 0.042.
In the case of G5C C6A U7C G8A U10A A37C, the “exon inclusion enrichment index” value turned out to be 0.426.
In the case of G5C it was 0.147; in that of G5A U7C G8A U10C A45G G46C, 3.06.
In the case of G5C C6G U7C U10C G21A C22U it was 1.87; in that of C6A U7A C9A U10A G13C, 1.04.
In the case of G5U G8U C9U A30G it was 0.109.
In the case of G5U G8U C9U A30C, the “exon inclusion enrichment index” value came out at 0.172.
With G5A C6G U7G C9A C24U A25U, the “exon inclusion enrichment index” value was 0.000784.
For the variant C6A U7A C9A U10A U27A G28C, the “exon inclusion enrichment index” value was determined as 0.818.
In the case of C6A U7A C9A U10A A40G G41U it was 0.576; in that of A30C A31U, 0.103.
For the variant G5C C6A U7C G8A U10A G28A A29U, the “exon inclusion enrichment index” value came out at 0.0236.
For the variant G5C C6U G8C C9U U10C C44G A45U, the “exon inclusion enrichment index” value was determined as 1.26.
As for G5C C6U G8C C9U U10C A39C A40U, the “exon inclusion enrichment index” value amounted to 1.13.
C6A U7A C9A U10A U17A: the “exon inclusion enrichment index” value was 0.63.
Take G5C C6U G8C C9U U10C C22A A23C: the “exon inclusion enrichment index” value came out at 2.99.
In the case of G5C C6U U7C G8A U10C it was 1.77; in that of G5C C6A, 0.0337; in that of G5A C6U U7A G8U C9A G42C G43U, 0.352.
In the case of U4C G5U C6A U7C C9A U10C it was 4.16; in that of G5A C6U U7A G8U C9A A45G G46U, 0.0592; in that of G5C C6A U7C G8A U10A U27C G28A, 0.142.
Consider C6A U7C C9A U10C U32G G33C, for which the “exon inclusion enrichment index” value was found to be 3.23.
The same measure for G5A C6U U7A G8U C9A G42U: 0.107; for G5C C6U G8C C9U U10C G46A A47U: 2.29; for G5A U7C G8A U10C A14U G15C: 1.01.
In the case of G5A C6U U7A G8U C9A G13A A14U it was 0.189.
The same measure for C6A U7C C9A U10C A31C U32G: 3.9; for G5A C6G U7G C9A C36G A37C: 0.00103; for G5C C6A U7C G8A U10A A37U G38C: 0.0672.
Consider G5A C6G U7C C9A U10C, for which the “exon inclusion enrichment index” value was 0.602.
For G5U G8U C9U G21U C22G, the “exon inclusion enrichment index” value was 0.103.
C6A U7C C9A U10C G33A G34A: the “exon inclusion enrichment index” value was determined as 0.865.
The same measure for C6A U7A C9A U10A G33U: 0.2; for G5C C6G U7C U10C G15U C16A: 3.58; for C6A U7C C9A U10C A14G G15A: 3.53.
In the case of G5A C6G U7G C9A U17A it was 0.00695; in that of G5C C6A U7C G8A U10A U17C C18G, 0.166.
The same measure for C6A U7C C9A U10C A45G: 4.95; for G5C C6U G8C C9U U10C G33A G34C: 0.284; for C6A U7A C9A U10A U32A: 0.442.
Regarding U4C G5A C6U U7A G8U C9A, the “exon inclusion enrichment index” value is 0.47.
In the case of G5C C6U G8C C9U U10C U32A G33C it was 2.37.
In the case of G5A C6G U7G C9A A47U it was 0.00119; in that of G5C C6A U7C G8A U10A A39C, 0.0137.
As to G5A C6U U7A G8U C9A A31G U32C, the “exon inclusion enrichment index” value was determined as 0.424.
For G5A C6U U7A G8U C9A A31G U32A, the “exon inclusion enrichment index” value stood at 0.855.
On to G5C C6U G8C C9U U10C G12A G13C, for which the “exon inclusion enrichment index” value was 0.692.
In the case of G5A U7C G8A U10C U32A G33U it was 1.68.
As for G5C C6U G8C C9U U10C A25G G26U, the “exon inclusion enrichment index” value turned out to be 2.71.
For C6A U7C C9A U10C A40C G41C, the “exon inclusion enrichment index” value amounted to 3.56.
Take G5C C6A U7C G8A U10A G34A A35U: the “exon inclusion enrichment index” value stood at 0.0204.
Consider G5C C6G U7C U10C A30C A31G, for which the “exon inclusion enrichment index” value came to 4.15.
G5C C6U G8C C9U U10C C44A: the “exon inclusion enrichment index” value was found to be 3.29.
In the case of C6A U7C C9A U10C G41C G42C it was 3.48; in that of G5U C6A U7A C9A U10A, 0.0813; in that of G5A U7C G8A U10C G12A, 1.48.
In the case of C6A U7C C9A U10C A47U it was 2.86.
G5A C6U U7A G8U C9A C36G A37C: the “exon inclusion enrichment index” value was found to be 0.0098.
In the case of G5A U7C G8A U10C G28U A29G it was 2.07.
The same measure for C6A U7A C9A U10A G26A U27C: 2.37; for G5C C6G U7C U10C U27G G28C: 2.55.
In the case of G5C C6U G8C C9U U10A G11C it was 1.84; in that of A45C G46U, 0.0235; in that of G5A C6U U7A G8U C9A G33A, 0.00613.
Consider G5C C6G U7A G8U C9A, for which the “exon inclusion enrichment index” value came out at 1.06.
With G5A C6U U7A G8U C9A A40U G41A, the “exon inclusion enrichment index” value came to 0.00198.
The same measure for G5C C6G U7G G8A U10A: 0.218.
In the case of C6A U7A C9A U10A A45C G46C it was 0.542.
In the case of C19A A20U it was 1.14; in that of G5A C6U U7A G8U C9A G26C U27A, 0.0751.
Consider G5A U7C G8A U10C C24U A25U, for which the “exon inclusion enrichment index” value was found to be 2.36.
In the case of U4A G5C C6G U7G C9A it was 0.594.
The same measure for G5A C6G U7G C9A G21A C22A: 0.000944; for G34A: 0.0592.

For the origin of these results see the RNAGym collection of RNA variant scans (doi:10.1101/gr.219683.116).
